# Measurements taken from publication PMC10908835, “Alternative low-populated conformations prompt phase transitions in polyalanine repeat expansions” (Nature Communications, 2024).
# Legend:
# [1] = target: the molecule itself; assay: NMR 15N spin relaxation (overall correlation time against that computed for the helix); 0.05 and 0.5 mM XS20, 0.5 mM XS23, 0.5 mM XS26 in NMR buffer (5 mM KPi, 10 mM NaCl, 2 mM β-mercaptoethanol, pH 6.8), 25 °C, 800 MHz
# [2] = target: T1, human HSP72 (named HSP70) (human, UniProt P0DMV8 1-641); assay: NMR titration; 15N-HSQC signal intensity; 0.07 mM 15N/13C XS26 with fresh 0.14 mM unlabelled HSP70 or HSP90 (1:2), 25 °C, 20 mM Hepes, 10 mM NaCl, 5 mM MgCl2, 2 mM ATP, 1 mM DTT, pH 6.8; conditions: both partners purified
# T1 construct: Unlabelled in the NMR titrations; 2 mM ATP and 5 mM MgCl2 in the buffer
# [3] = target: T2, human HSP90β (named HSP90) (human, UniProt P08238 1-724); assay: as above; conditions: both partners purified
# T2 construct: Unlabelled in the NMR titrations
# [4] = target: the molecule itself; assay: NMR 15N spin relaxation (overall correlation time against that computed for the helix); 0.5 mM 15N/13C XS20 in NMR buffer (5 mM KPi, 10 mM NaCl, 2 mM β-mercaptoethanol, pH 6.8), 5 °C, 800 MHz
# T2 sequence (P08238 whole entry): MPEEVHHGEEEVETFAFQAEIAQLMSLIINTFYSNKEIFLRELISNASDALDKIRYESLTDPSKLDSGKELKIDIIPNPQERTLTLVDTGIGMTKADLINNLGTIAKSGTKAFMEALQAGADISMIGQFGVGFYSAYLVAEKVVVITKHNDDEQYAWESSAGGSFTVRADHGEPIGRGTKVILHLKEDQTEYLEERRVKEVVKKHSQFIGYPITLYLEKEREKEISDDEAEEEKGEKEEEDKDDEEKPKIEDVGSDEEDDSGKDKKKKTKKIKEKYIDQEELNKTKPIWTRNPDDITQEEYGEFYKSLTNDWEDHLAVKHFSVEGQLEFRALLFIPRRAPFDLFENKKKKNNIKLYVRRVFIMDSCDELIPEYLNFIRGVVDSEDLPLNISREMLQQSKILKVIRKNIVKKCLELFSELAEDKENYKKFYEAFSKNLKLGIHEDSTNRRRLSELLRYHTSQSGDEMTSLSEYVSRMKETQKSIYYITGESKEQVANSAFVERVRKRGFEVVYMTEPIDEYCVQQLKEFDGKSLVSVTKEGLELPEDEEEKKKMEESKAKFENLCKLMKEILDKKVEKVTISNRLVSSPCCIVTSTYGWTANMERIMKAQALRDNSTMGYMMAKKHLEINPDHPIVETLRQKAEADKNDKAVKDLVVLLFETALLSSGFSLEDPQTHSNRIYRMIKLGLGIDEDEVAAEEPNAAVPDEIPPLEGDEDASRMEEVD
# T1 sequence (P0DMV8 whole entry): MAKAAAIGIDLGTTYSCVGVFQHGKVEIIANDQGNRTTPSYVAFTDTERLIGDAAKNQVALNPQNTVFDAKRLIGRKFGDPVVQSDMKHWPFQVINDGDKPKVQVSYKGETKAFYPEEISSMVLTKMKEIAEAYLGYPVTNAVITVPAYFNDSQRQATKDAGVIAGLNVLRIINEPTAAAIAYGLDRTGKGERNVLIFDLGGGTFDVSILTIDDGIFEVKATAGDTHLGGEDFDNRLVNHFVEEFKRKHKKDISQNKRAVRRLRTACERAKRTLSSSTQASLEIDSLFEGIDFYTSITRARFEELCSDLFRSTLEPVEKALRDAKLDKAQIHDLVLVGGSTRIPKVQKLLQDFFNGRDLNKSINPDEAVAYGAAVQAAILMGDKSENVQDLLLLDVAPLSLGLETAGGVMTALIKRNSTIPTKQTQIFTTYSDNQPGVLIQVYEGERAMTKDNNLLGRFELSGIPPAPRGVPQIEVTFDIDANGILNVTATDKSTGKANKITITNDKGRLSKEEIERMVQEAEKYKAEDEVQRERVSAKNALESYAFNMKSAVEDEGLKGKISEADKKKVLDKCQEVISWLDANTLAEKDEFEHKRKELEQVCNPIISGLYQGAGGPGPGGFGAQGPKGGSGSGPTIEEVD
Binder,binding result [1],binding result [2],binding result [3],binding result [4]
"human PHOX2B fragment 228-314 with a +3 Ala expansion (XS23) (domain or fragment, UniProt Q99453 228-314, looked up, PHOX2B, human, residues 228-314 (wild-type numbering) with 3 alanines added to the 20-alanine tract (241-260); Made by mutagenic PCR; 15N/13C-labelled for NMR; also called +3 Ala variant; +3 PARM; not shown: Thioredoxin, N-terminal, cleaved; His6, N-terminal, cleaved) GPGGPGGEPGKGGAAAAAAAAAAAAAAAAAAAAAAAGGLAAAGGPGQGWAPGPGPITSIPDSLGGPFASVLSSLQRPNGAKAALVKSSMF",binds,,,
"human PHOX2B fragment 228-314 with a +6 Ala expansion (XS26) (domain or fragment, UniProt Q99453 228-314, looked up, Made by mutagenic PCR; 15N/13C-labelled for NMR titrations; also called +6 Ala variant; expanded PHOX2B; not shown: Thioredoxin, N-terminal, cleaved; His6, N-terminal, cleaved) GPGGPGGEPGKGGAAAAAAAAAAAAAAAAAAAAAAAAAAGGLAAAGGPGQGWAPGPGPITSIPDSLGGPFASVLSSLQRPNGAKAALVKSSMF",binds,binds,binds,
"human PHOX2B fragment 228-314 (XS20) (domain or fragment, UniProt Q99453 228-314, looked up, Paired mesoderm homeobox protein 2B (PHOX2B), human, residues 228-314, holds the 20-alanine tract (residues 241-260); 15N/13C-labelled for NMR; also called PHOX2B C-terminal fragment; wild-type PHOX2B; not shown: Thioredoxin, N-terminal, cleaved; His6, N-terminal, cleaved) GPGGPGGEPGKGGAAAAAAAAAAAAAAAAAAAAGGLAAAGGPGQGWAPGPGPITSIPDSLGGPFASVLSSLQRPNGAKAALVKSSMF",,,,binds
